Results on twelve molecules are retold here after patent US20070148163A1 (Kyowa Kirin, published 2007).

cellulose membrane = not defined here Bounds are passed on as bounds.

The target in test [1] is T1, human CD40 expressed on cells (Ramos, T24, Hs 766T, Capan-2) (human, UniProt P25942 21-277). Description: cell-based or functional assay.
Test [2] concerns the target T2, 23rd of the 82 13-mer peptides covering the extracellular region of CD40 (reading uncertain).
T2 construct: also called 23rd peptide
T2 peptide: Ac-SEFLDTWNRETHC-{cellulose membrane}
Description: SPOT peptide array (13-mers on cellulose membrane), Western-type detection, spot intensity by LumiImager. As to the method:
(§1) The reaction thereafter was carried out based on a conventional Western analysis (see Reineke, U. et al. (2001), “Epitope mapping with synthetic peptides prepared by SPOT synthesis.” Antibody Engineering (Springer Lab Manual) Eds.: Kontermann/Dubel, 433-459, for example). In the analysis, coloring intensity of each spot was quantified using Lumilmager™ (Boehringer-Mannheim Corp.) (FIG. 1A-1, 1A-2, 1B-1 and B-2).

The target in test [3] is T3, 21st of the 82 13-mer peptides covering the extracellular region of CD40 (reading uncertain).
T3 construct: also called 21st peptide
T3 peptide: Ac-PCGESEFLDTWNR-{cellulose membrane}
The test is described as above. As to the method: as §1

Test [4] has as its target T4, 18th of the 82 13-mer peptides covering the extracellular region of CD40 (cysteine pairing not given here; reading uncertain).
T4 construct: also called 18th peptide
T4 peptide: Ac-TETECLPCGESEF-{cellulose membrane}
Described as above. As to the method:
as §1

Test [5] concerns the target T5, 20th of the 82 13-mer peptides covering the extracellular region of CD40 (cysteine pairing not given here; reading uncertain).
T5 construct: also called 20th peptide
T5 peptide: Ac-CLPCGESEFLDTW-{cellulose membrane}
The test is described as above. How it is done: as §1

For test [6], the target named is T6, 13th of the 82 13-mer peptides covering the extracellular region of CD40 (reading uncertain).
T6 construct: also called 13th peptide
T6 peptide: Ac-QKLVSDCTEFTET-{cellulose membrane}
Described as above. As to the method: as §1

Test [7] has as its target T7, 14th of the 82 13-mer peptides covering the extracellular region of CD40 (cysteine pairing not given here; reading uncertain).
T7 construct: also called 14th peptide
T7 peptide: Ac-LVSDCTEFTETEC-{cellulose membrane}
Described as above. How it is done: as §1

Test [8] addresses T8, 64th of the 82 13-mer peptides covering the extracellular region of CD40 (reading uncertain).
T8 construct: also called 64th peptide
T8 peptide: Ac-PVGFFSNVSSAFE-{cellulose membrane}
The description is as above. As to the method: as §1

For test [9], the target named is T9, 19th of the 82 13-mer peptides covering the extracellular region of CD40 (cysteine pairing not given here; reading uncertain).
T9 construct: also called 19th peptide
T9 peptide: Ac-TECLPCGESEFLD-{cellulose membrane}
The description is as above. How it is done: as §1

Test [10] addresses T10, 22nd of the 82 13-mer peptides covering the extracellular region of CD40 (reading uncertain).
T10 construct: also called 22nd peptide
T10 peptide: Ac-GESEFLDTWNRET-{cellulose membrane}
Described as above. How it is done: as §1

For test [11], the target named is T11, 12th of the 82 13-mer peptides covering the extracellular region of CD40 (reading uncertain).
T11 construct: also called 12th peptide
T11 peptide: Ac-PGQKLVSDCTEFT-{cellulose membrane}
Described as above. How it is done: as §1

Test [12] deals with T12, 17th of the 82 13-mer peptides covering the extracellular region of CD40 (cysteine pairing not given here; reading uncertain).
T12 construct: also called 17th peptide
T12 peptide: Ac-EFTETECLPCGES-{cellulose membrane}
Described as above. How it is done: as §1

Test [13] has as its target T13, 15th of the 82 13-mer peptides covering the extracellular region of CD40 (cysteine pairing not given here; reading uncertain).
T13 construct: also called 15th peptide
T13 peptide: Ac-SDCTEFTETECLP-{cellulose membrane}
The description is as above. How it is done:
as §1

The target in test [14] is T14, 16th of the 82 13-mer peptides covering the extracellular region of CD40 (cysteine pairing not given here; reading uncertain).
T14 construct: also called 16th peptide
T14 peptide: Ac-CTEFTETECLPCG-{cellulose membrane}
The test is described as above. As to the method:
as §1

Test [15] addresses T15, CD40mut2 (mutant CD40-FC fusion protein) (UniProt P25942 21-193, limits assumed).
T15 construct: Human CD40 implied
Description: ELISA on mutant CD40-FC fusion protein.

For test [16], the target named is T1, human CD40 expressed on cells (Ramos, …). Description: flow cytometry on Ramos cells.
The target of test [17] is T16, 41st of the 82 13-mer peptides covering the extracellular region of CD40 (cysteine pairing not given here; reading uncertain).
T16 construct: also called 41st peptide
T16 peptide: Ac-TICTCEEGWHCTS-{cellulose membrane}
Kind of test: SPOT peptide array (13-mers on cellulose membrane), Western-type detection, spot intensity by LumiImager. How it is done: as §1

Test [18] deals with T17, 24th of the 82 13-mer peptides covering the extracellular region of CD40 (reading uncertain).
T17 construct: also called 24th peptide
T17 peptide: Ac-FLDTWNRETHCHQ-{cellulose membrane}
The description is as above. How it is done:
as §1

For test [19], the target named is T18, 42nd of the 82 13-mer peptides covering the extracellular region of CD40 (cysteine pairing not given here; reading uncertain).
T18 construct: also called 42nd peptide
T18 peptide: Ac-CTCEEGWHCTSEA-{cellulose membrane}
Described as above. How it is done: as §1

T1 sequence (P25942 21-277): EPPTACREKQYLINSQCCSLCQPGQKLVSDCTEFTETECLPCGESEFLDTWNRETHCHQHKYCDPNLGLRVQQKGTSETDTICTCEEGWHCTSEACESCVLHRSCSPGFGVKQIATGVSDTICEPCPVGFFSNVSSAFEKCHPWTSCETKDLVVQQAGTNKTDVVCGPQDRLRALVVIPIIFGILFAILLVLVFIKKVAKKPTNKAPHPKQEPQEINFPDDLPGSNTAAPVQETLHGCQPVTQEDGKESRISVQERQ
T15 sequence (P25942 other isoform, or with tags, fused parts or gaps mutant limits assumed): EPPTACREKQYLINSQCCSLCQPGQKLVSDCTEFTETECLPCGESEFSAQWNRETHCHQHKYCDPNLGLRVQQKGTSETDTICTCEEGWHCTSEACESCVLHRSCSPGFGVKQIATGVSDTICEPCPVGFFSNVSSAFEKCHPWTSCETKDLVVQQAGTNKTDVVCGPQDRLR

B1: 2105 antibody, constant region converted into IgG1 (antibody, V domains shown)
VH: EVQLVESGGGLVQPGRSLRLSCAASGFTFDDYAMHWVRQAPGKGLEWVSGISWNSGSLVHADSVKGRFTISRDNAKNSLYLQMNSLRAEDTALYYCARDRLFRGVRYYGMDVWGQGTTVTVSS
VL: EIVLTQSPATLSLSPGERATLSCRASQSVSSYLAWYQQKPGQAPRLLIYDASNRATGIPARFSGSGSGTDFTLTISSLEPEDFAVYYCQQRSHWLTFGGGTKVEIK
With B1, in test [1], the “CD95 expression enhancing activity in Ramos cells, reduction against IgG2” value is at least 10%.

B2: 2105 antibody, constant region converted into IgG3 (antibody, V domains shown)
VH: B1 VH
VL: B1 VL
Consider B2, for which the “CD95 expression enhancing activity in Ramos cells, reduction against IgG2” value in test [1] is at least 10%.

B3: 2105 antibody, constant region converted into IgG4 (antibody, V domains shown)
VH: B1 VH
VL: B1 VL
With B3, the “CD95 expression enhancing activity in Ramos cells, reduction against IgG2” value in [1] was at least 10%.

B4: 2105 antibody (original IgG2) (antibody, V domains shown)
VH: B1 VH
VL: B1 VL
With B4, the binding result in test [2], in test [3], in test [4], in test [5], in test [6] and in [7] was “binds” each time. The binding result in test [8], in [9], in test [10], in [11], in test [12] and in [13] was “binds” each time. In addition, the binding result in [14] is given as “binds”.

B5: 4D11 antibody (original subclass IgG1) (antibody, V domains shown)
VH: QLQLQESGPGLLKPSETLSLTCTVSGGSISSPGYYGGWIRQPPGKGLEWIGSIYKSGSTYHNPSLKSRVTISVDTSKNQFSLKLSSVTAADTAVYYCTRPVVRYFGWFDPWGQGTLVTVSS
VL: AIQLTQSPSSLSASVGDRVTITCRASQGISSALAWYQQKPGKAPKLLIYDASNLESGVPSRFSGSGSGTDFTLTISSLQPEDFATYYCQQFNSYPTFGQGTKVEIK
notes: also called 4D11G1
In the case of B5, the binding result in [15], in test [16], in [2], in test [3], in test [17] and in test [5] was “binds” throughout. The binding result in test [10] and in test [18] was “binds” each time.

B6: 4D11G4P (4D11 antibody, IgG4 with S228P) (antibody, V domains shown)
VH: B5 VH
VL: B5 VL
notes: Human IgG4 constant region with point mutation S228P (EU index; vector N5KG4P); also called IgG4P
For the molecule B6, in test [16], the binding result was “binds”.

B7: 4D11 antibody IgG4 (antibody, V domains shown)
VH: B5 VH
VL: B5 VL
notes: Human IgG4 constant region (vector N5KG4), no point mutation; also called 4D11 IgG4
In the case of B7, the binding result in [16] is “binds”.

B8: 4D11G4PE (4D11 antibody, IgG4 with S228P and L235E) (antibody, V domains shown)
VH: B5 VH
VL: AIQLTQSPSSLSASVGDRVTITCRASQGISSALAWYQQKPGKAPKLLIYDASNLESGVPSRFSGSGSGTDFTLTISSLQPEDFATYYCQQFNSYPTFGQGTKVEIKR
notes: also called IgG4PE; 4D11 antibody G4PE
As to B8, the binding result in test [16] was “binds”.

B9: KM341-1-19 antibody, constant region converted into IgG1 (antibody, V domains shown)
VH: QVQLQQSGPGLVKPSQTLSLTCAISGDSVSSNSATWNWIRQSPSRDLEWLGRTYYRSKWYRDYVGSVKSRIIINPDTSNNQFSLQLNSVTPEDTAIYYCTRAQWLGGDYPYYYSMDVWGQGTTVTVSS
VL: EIVLTQSPATLSLSPGERATLSCRASQSVSSYLAWYQQKPGQAPRLLIYDASNRATGIPARFSGSGSGTDFTLTISSLEPEDFAVYYCQQRSNTFGPGTKVDIK
As for B9, the “CD95 expression enhancing activity in Ramos cells, reduction against IgG2” value in test [1] is at least 10%.

B10: KM341-1-19 antibody, constant region converted into IgG4 (antibody, V domains shown)
VH: B9 VH
VL: B9 VL
Take B10: the “CD95 expression enhancing activity in Ramos cells, reduction against IgG2” value in test [1] is at least 10%.

B11: KM341-1-19 antibody, constant region converted into IgG3 (antibody, V domains shown)
VH: B9 VH
VL: B9 VL
On to B11, for which, in [1], the “CD95 expression enhancing activity in Ramos cells, reduction against IgG2” value was at least 10%.

B12: KM341-1-19 antibody (original IgG2) (antibody)
heavy: QVQLQQSGPGLVKPSQTLSLTCAISGDSVSSNSATWNWIRQSPSRDLEWLGRTYYRSKWYRDYVGSVKSRIIINPDTSNNQFSLQLNSVTPEDTAIYYCTRAQWLGGDYPYYYSMDVWGQGTTVTVSSASTKGPSVFPLAPCSRSTSESTAALGCLVKDYFPEPVTVSWNSGALTSGVHTFPAVLQSSGLYSLSSVVTVPSSNFGTQTYTCNVDHKPSNTKVDKTVERKCCVECPPCPAPPVAGPSVFLFPPKPKDTLMISRTPEVTCVVVDVSHEDPEVQFNWYVDGVEVHNAKTKPREEQFNSTFRVVSVLTVVHQDWLNGKEYKCKVSNKGLPAPIEKTISKTKGQPREPQVYTLPPSREEMTKNQVSLTCLVKGFYPSDIAVEWESNGQPENNYKTTPPMLDSDGSFFLYSKLTVDKSRWQQGNVFSCSVMHEALHNHYTQKSLSLSPGK
VL: B9 VL
notes: Human IgG2; also called original KM341-1-19 antibody
For B12, the binding result in [17] and in [19] was “binds” throughout.
